Drawing on PMC4908968, this text covers stoichiometry N for one substance.

Test [1] deals with Full-length (FL) MMTV integrase (IN), wild type (mouse mammary tumor virus (MMTV)). Nature of the test: SEC. In general terms: Size exclusion chromatography separates by hydrodynamic size, large species first.
Test [2] shares this target. The experiment in a line: AUC.

The term stoichiometry N denotes the number of molecules, sites or subunits per partner or assembly.

“Full-length (FL) MMTV integrase (IN), wild type (enzyme)”: the stoichiometry N in test [1] amounted to 2; in test [2] it was 8.
